3 molecules from PMC2935574 (The Journal of Cell Biology, 2010) can be followed below.

Assay [1] has as its target T1, DSN1 (subunit of MIS12C, hexahistidine tag) (human, UniProt Q9H410 1-356).
T1 sequence (looked up): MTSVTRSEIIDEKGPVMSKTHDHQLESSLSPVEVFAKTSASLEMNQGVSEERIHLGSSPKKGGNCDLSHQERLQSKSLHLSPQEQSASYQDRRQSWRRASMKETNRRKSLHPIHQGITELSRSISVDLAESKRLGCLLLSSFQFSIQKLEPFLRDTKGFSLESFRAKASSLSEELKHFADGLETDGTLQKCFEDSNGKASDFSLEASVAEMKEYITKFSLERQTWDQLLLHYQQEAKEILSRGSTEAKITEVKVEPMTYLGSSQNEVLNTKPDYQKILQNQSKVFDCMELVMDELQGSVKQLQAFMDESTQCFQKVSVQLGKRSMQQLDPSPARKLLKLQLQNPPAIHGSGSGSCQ
The experiment in a line: co-expression and co-purification.

Assay [2] concerns the target T2, MIS12 complex (full-length MIS12C) (human, UniProt Q9H081 1-205; Q6P1K2 1-205; Q9H410 1-356; Q96IY1 1-281).
T2 sequence (looked up) 1: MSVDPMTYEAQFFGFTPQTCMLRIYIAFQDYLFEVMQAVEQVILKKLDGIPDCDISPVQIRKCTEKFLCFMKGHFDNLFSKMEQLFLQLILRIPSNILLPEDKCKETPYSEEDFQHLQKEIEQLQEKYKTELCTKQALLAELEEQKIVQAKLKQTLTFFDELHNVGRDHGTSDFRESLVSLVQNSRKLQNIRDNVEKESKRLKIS
T2 sequence (looked up) 2: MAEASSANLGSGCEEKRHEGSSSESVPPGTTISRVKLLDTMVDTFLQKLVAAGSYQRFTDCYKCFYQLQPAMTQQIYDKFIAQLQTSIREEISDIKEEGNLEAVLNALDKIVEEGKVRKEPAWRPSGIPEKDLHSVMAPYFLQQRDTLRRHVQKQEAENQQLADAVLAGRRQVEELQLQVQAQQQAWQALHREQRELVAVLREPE
T2 sequence (looked up) 3: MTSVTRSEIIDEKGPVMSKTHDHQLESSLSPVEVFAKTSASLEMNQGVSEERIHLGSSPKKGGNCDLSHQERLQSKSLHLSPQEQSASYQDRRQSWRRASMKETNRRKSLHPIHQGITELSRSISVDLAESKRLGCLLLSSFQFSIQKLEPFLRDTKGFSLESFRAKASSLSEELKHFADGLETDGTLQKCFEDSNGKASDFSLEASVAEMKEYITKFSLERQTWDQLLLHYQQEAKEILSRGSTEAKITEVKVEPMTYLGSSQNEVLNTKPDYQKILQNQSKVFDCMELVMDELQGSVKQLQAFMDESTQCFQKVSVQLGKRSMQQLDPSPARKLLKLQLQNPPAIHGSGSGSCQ
T2 sequence (looked up) 4: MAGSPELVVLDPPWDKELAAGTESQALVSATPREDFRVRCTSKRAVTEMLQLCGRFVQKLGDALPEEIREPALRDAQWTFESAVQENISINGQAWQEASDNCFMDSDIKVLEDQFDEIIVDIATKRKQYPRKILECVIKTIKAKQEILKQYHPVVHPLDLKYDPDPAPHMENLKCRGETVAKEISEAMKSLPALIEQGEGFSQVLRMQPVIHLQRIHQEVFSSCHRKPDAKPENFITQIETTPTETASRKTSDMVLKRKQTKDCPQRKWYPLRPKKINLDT
Put plainly: pull-down.

The target of the next assay is T3, SPC25^70–224 (human, UniProt Q9HBM1 70-224).
T3 sequence (looked up): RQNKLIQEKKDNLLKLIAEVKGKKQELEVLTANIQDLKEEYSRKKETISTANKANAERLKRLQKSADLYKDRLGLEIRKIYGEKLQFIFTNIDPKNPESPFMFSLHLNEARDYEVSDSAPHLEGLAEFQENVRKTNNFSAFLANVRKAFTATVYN
Put plainly: AUC.

B1: MIS12 (subunit of MIS12C) (natural protein, human, UniProt Q9H081 1-205, looked up)
chain: MSVDPMTYEAQFFGFTPQTCMLRIYIAFQDYLFEVMQAVEQVILKKLDGIPDCDISPVQIRKCTEKFLCFMKGHFDNLFSKMEQLFLQLILRIPSNILLPEDKCKETPYSEEDFQHLQKEIEQLQEKYKTELCTKQALLAELEEQKIVQAKLKQTLTFFDELHNVGRDHGTSDFRESLVSLVQNSRKLQNIRDNVEKESKRLKIS
In the case of B1, the binding result in assay [1] is given as “binds”.

B2: GST-KNL1^1904–2316 (domain or fragment, human, UniProt Q8NG31-2 1904-2316, looked up)
chain: EDLMLSQYVYRPKIQIYREDCEARRQKIEELKLSASNQDKLLVDINKNLWEKMRHCSDKELKAFGIYLNKIKSCFTKMTKVFTHQGKVALYGKLVQSAQNEREKLQIKIDEMDKILKKIDNCLTEMETETKNLEDEEKNNPVEEWDSEMRAAEKELEQLKTEEEELQRNLLELEVQKEQTLAQIDFMQKQRNRTEELLDQLSLSEWDVVEWSDDQAVFTFVYDTIQLTITFEESVVGFPFLDKRYRKIVDVNFQSLLDEDQAPPSSLLVHKLIFQYVEEKESWKKTCTTQHQLPKMLEEFSLVVHHCRLLGEEIEYLKRWGPNYNLMNIDINNNELRLLFSSSAAFAKFEITLFLSAYYPSVPLPSTIQNHVGNTSQDDIATILSKVPLENNYLKNVVKQIYQDLFQDCHFYH
Regarding B2, the binding result in assay [2] is “binds”.

B3: SPC24^57–197 (domain or fragment, human, UniProt Q8NBT2 57-197, looked up)
chain: TMEKEVAQSLLNAKEQVHQGGVELQQLEAGLQEAGEEDTRLKASLLQLTRELEELKEIEADLERQEKEVDEDTTVTIPSAVYVAQLYHQVSKIEWDYECEPGMVKGIHHGPSVAQPIHLDSTQLSRKFISDYLWSLVDTEW
As to B3, the stoichiometry N (as a rule, the number of molecules, sites or subunits per partner or assembly) with SPC25^70–224 is 1.
